This note sets out measurements from patent US20230108300A1 (University of Pennsylvania, published 2023).

The test concerns the target MART1 clone DMF4 TCR (includes the TCRvβ12 segment) expressed on SupT1 cells. The test is described as follows: cell-based or functional assay.

B1: Vβ12-targeting CAR (construct not specified for the experiment) (other)
VH: EVMLVESGGGLVKPGGSLKLSCAASGFTFRSYAMSWVRQTPEKRLEWVATISSGGSYTNYPDSVKGRFTISRDNAKNTLNLQMNSLRSEDTAMYYCARGYHGYLDVWGAGTTVTVSS
VL: DILLTQSPAFLSVSPGERVSFSCRASQSIGTSIHWYQQRTNGSPRLLIKYASESFSGIPSRFSGSGSGTDFTLSISSVESEDIADYYCQQSYSWPYTFGGGTKLEIK
For the molecule B1, the “lysis of the target cell lines at three E:T ratios” value was roughly 100%.
